According to article PMC4369733, “Design of a PDZbody, a bivalent binder of the E6 protein from human papillomavirus” (Scientific Reports, 2015):

T1: pseudo wild type SAP97 PDZ2 (residues 311-407; I342W, C378A) (human, UniProt Q12959 311-407, I342W | C378A)
T1 construct: SAP97 (also called human Dlg), second PDZ domain (PDZ2), residues 311-407; Residues of the thrombin site probably stay at the N-terminus after cleavage (surmised); also called pWT; source: E. coli BL21(DE3) pLysS, purified (nickel-Sepharose, thrombin digestion, nickel reload, Source 30Q); not shown: His tag, N-terminal, cleaved; lipoyl protein domain (Bacillus stearothermophilus), N-terminal, …
T1 sequence (looked up): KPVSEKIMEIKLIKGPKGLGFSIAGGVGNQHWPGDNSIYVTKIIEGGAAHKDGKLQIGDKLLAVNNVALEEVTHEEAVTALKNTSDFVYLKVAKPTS

B1: Lipo-E6_(18)-C: C-terminal domain of HPV18 E6 (residues 82-158) linked via the N-terminus to His-tagged lipoyl domain (domain or fragment)
chain: SDSVYGDTLEKLTNTGLYNLLIRCLRCQKPLNPAEKLRHLNEKRRFHNIAGHYRGQCHSCCNRARQERLQRRRETQV
notes: HPV18 E6 C-terminal domain, residues 82-158, UniProtKB P06463; A thrombin cleavage site (LVPRGS) stands between the lipoyl domain and the E6 domain and was not cut; also called HPV18 E6 C-terminal domain; source: E. coli BL21(DE3) pLysS, purified (nickel-Sepharose, Source 30Q; thrombin digestion omitted); not shown: His tag, N-terminal, kept; lipoyl protein domain (Bacillus stearothermophilus), …

How the values were obtained:
[1] = molecular target: Lipo-E6_(18)-C: C-terminal domain of HPV18 E6 (residues 82-158) linked via the N-terminus to His-tagged lipoyl domain (HPV18) (UniProt P06463); assay: stopped-flow fluorescence kinetics; displacement: pre-formed complex of PDZ variant (0.75 µM) and Lipo-E6_(18)-C (0.75 µM) mixed with dansylated peptide (20, 150 and 300 µM); 10°C, 50 mM potassium phosphate pH 7.5, 240 µM β-mercaptoethanol; koff = kobs at high peptide
[2] = molecular target: Lipo-E6_(18)-C: C-terminal domain of HPV18 E6 (residues 82-158) linked via the N-terminus to His-tagged lipoyl domain (HPV18) (UniProt P06463); assay: stopped-flow fluorescence kinetics; association: PDZ variant (6-20 µM) mixed with Lipo-E6_(18)-C (2 µM), Trp342 emission; 10°C, 50 mM potassium phosphate pH 7.5, 240 µM β-mercaptoethanol; kon from kobs versus PDZ concentration; Kd = koff/kon
[3] = molecular target: PDZbody15 (E6AP helix, Gly-Ser linker of 10 residues, PDZϕ9) (UniProt Q12959); assay: ITC; full-length HPV16 E6 titrated into the PDZ variant or PDZbody; ITC200, 25°C, 20 mM sodium phosphate pH 6.8, 200 mM NaCl, 1 mM TCEP; single-site model
[4] = molecular target: PDZϕ9 (SAP97 PDZ2 pseudo wild type with L391F, K392M) (human) (UniProt Q12959); assay: as above
[5] = molecular target: PDZbody20 (E6AP helix, Gly-Ser linker of 15 residues, PDZϕ9) (UniProt Q12959); assay: as above
[6] = molecular target: pseudo wild type SAP97 PDZ2 (residues 311-407; I342W, C378A) (human) (UniProt Q12959); assay: as above
[7] = molecular target: PDZbody25 (E6AP helix, Gly-Ser linker of 20 residues, PDZϕ9) (UniProt Q12959); assay: as above
[8] = molecular target: PDZbody8 (E6AP helix, Gly-Ser linker of 3 residues, PDZϕ9) (UniProt Q12959); assay: as above
[9] = molecular target: T1, pseudo wild type SAP97 PDZ2 (residues …); assay: stopped-flow fluorescence kinetics; association: PDZ variant (6-20 µM) mixed with Lipo-E6_(18)-C (2 µM), Trp342 emission; 10°C, 50 mM potassium phosphate pH 7.5, 240 µM β-mercaptoethanol; kon from kobs versus PDZ concentration; Kd = koff/kon; conditions: both partners purified
[10] = molecular target: T1, pseudo wild type SAP97 PDZ2 (residues …); assay: stopped-flow fluorescence kinetics; displacement: pre-formed complex of PDZ variant (0.75 µM) and Lipo-E6_(18)-C (0.75 µM) mixed with dansylated peptide (20, 150 and 300 µM); 10°C, 50 mM potassium phosphate pH 7.5, 240 µM β-mercaptoethanol; koff = kobs at high peptide; conditions: both partners purified

Row | Molecule | koff [1] | Kd [2] | kon [2] | also measured
1 | PDZϕ4 (SAP97 PDZ2 pseudo wild type with E385H, K392R) (from UniProt Q12959 311-407) (designed binder) | 5.1 s⁻¹ | 600 nM | 8.5e+06 M⁻¹ s⁻¹ | 
2 | PDZϕ5 (SAP97 PDZ2 pseudo wild type with E385H, K392T) (from UniProt Q12959 311-407) (designed binder) | 3.8 s⁻¹ | 780 nM | 4.9e+06 M⁻¹ s⁻¹ | 
3 | PDZϕ8 (SAP97 PDZ2 pseudo wild type with E385T) (from UniProt Q12959 311-407) (designed binder) | 3.8 s⁻¹ | 660 nM | 5.8e+06 M⁻¹ s⁻¹ | 
4 | PDZϕ7 (SAP97 PDZ2 pseudo wild type with E385K, K392R) (from UniProt Q12959 311-407) (designed binder) | 5.5 s⁻¹ | 610 nM | 8.9e+06 M⁻¹ s⁻¹ | 
5 | PDZϕ3 (SAP97 PDZ2 pseudo wild type with L391F, K392A) (from UniProt Q12959 311-407) (designed binder) | 0.75 s⁻¹ | 160 nM | 4.6e+06 M⁻¹ s⁻¹ | 
6 | full-length HPV16 E6 (from UniProt P03126 1-158) (natural protein) |  |  |  | Kd [3]: 160 nM; dH [3]: -16.5 kcal/mol; stoichiometry N [3]: 0.93; Kd [4]: 910 nM; dH [4]: -9.9 kcal/mol; stoichiometry N [4]: 0.75; Kd [5]: 65 nM; dH [5]: -17 kcal/mol; stoichiometry N [5]: 0.94; Kd [6]: 6.3 µM; dH [6]: -4.6 kcal/mol; stoichiometry N [6]: 0.75; Kd [7]: 79 nM; dH [7]: -19.8 kcal/mol; stoichiometry N [7]: 0.92; Kd [8]: 200 nM; dH [8]: -19.1 kcal/mol; stoichiometry N [8]: 0.76
7 | PDZϕ1 (SAP97 PDZ2 pseudo wild type with E385R) (from UniProt Q12959 311-407) (designed binder) | 7.5 s⁻¹ | 920 nM | 8.2e+06 M⁻¹ s⁻¹ | 
8 | PDZϕ6 (SAP97 PDZ2 pseudo wild type with E385K, K392Q) (from UniProt Q12959 311-407) (designed binder) | 10.2 s⁻¹ | 2500 nM | 4e+06 M⁻¹ s⁻¹ | 
9 | PDZϕ2 (SAP97 PDZ2 pseudo wild type with E385H, L391F, K392Q) (from UniProt Q12959 311-407) (designed binder) | 1.5 s⁻¹ | 260 nM | 5.9e+06 M⁻¹ s⁻¹ | 
10 | PDZϕ9 (SAP97 PDZ2 pseudo wild type with L391F, K392M) (from UniProt Q12959 311-407) (designed binder) | 0.55 s⁻¹ | 93 nM | 5.9e+06 M⁻¹ s⁻¹ | 
11 | B1 |  |  |  | Kd [9]: 540 nM; kon [9]: 6.2e+06 M⁻¹ s⁻¹; koff [10]: 3.3 s⁻¹
